Laboratory results from IntAct's records for PubMed 26551074.

B1: Telomerase-associated protein of 45 kDa (Tetrahymena thermophila (strain SB210)), Q6JXI5 (parent)
chain: MEDNFELVFLKELPSLPDFSKVCFTGLILSFSNFPSSEQNQQKDVPHKIAIIQDSTGEAELFLDMYKFCQEEISVFKAITGIGVLKKKNIGAGQVCKIIVERFRIIHSADEEMLQYLLIQKYKLSKTLNEQQQIKQKEQQINQQKIDKVVQDKESKEHLLWKQQQIPQIKSNQENINTLKYKELIAGELMRITHKLLIQKLQQQQPANNNKQINEMDVESNELAEKKEVIIKIQEIAKDQQLYDTLSIQYQVDQKEQYYAKIAQSLEDFVSISALKMVSYIYPNISYQVSIGFFQNILDIATKTVKDRGALGCNYKYLKDKLTKALNLQQISYPLISESYISYLVHLFQDFNIIEIENEHKFYYKQAFQYDDS
partner: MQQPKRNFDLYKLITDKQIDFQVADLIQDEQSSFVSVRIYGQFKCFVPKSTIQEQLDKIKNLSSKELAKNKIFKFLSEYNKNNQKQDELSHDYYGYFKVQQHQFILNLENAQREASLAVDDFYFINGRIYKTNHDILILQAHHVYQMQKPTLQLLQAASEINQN
B2: Telomerase-associated protein of 19 kDa (Tetrahymena thermophila (strain SB210)), D2CVN7 (parent)
chain: B1 partner
partner: B1 chain

Variants of: B1
Details: with tap19_tetts TAP19, D2CVN7

Variant	effect of a mutation on the interaction
M113W	disrupting interaction strength
A109R	disrupting interaction strength
A109W	disrupting interaction strength
E112R	disrupting interaction strength

Variants of: B2
Details: with tap45_tetts TAP45, Q6JXI5

Variant	effect of a mutation on the interaction
R38E	disrupting interaction strength
I161R	disrupting interaction strength
Y145A	disrupting interaction strength
M147W	disrupting interaction strength
